Test results reported in patent US12459987B2, “Monoclonal antibodies for prevention and treatment of herpes simplex viral infections” (priority 2019, dated 2025).
“Also recorded” adds a separate entry of the source.

B1: HSV010-13: gB-1 specific mouse monoclonal IgG; IgH SEQ ID NO: 52, IgL SEQ ID NO: 54 (antibody, V domains shown)
VH: QVQLQQPGAELVKPGASVKLSCKASGYTFTSYWIHWVKQGPGQGLEWIGMIHPNSGITHYNEKFKTKATLTVDKSSSTAYMQLSSLTSEDSAVCYCARGSSSGSAWFAYWGQGTLVTVSAA
VL: DIQMTQSSSYLSESLGGRVTITCKASDHINNWLAWYQQKPGNAPRLLISGATSLETGVPSRFSGSGSGKDYTLSITSLQTEDVATYYCQQYWSSPLTFGAGTKLELKR
modifications: HSV010-13 heavy chain; HSV010-13 light chain
B2: HSV010-14: gB-1 specific mouse monoclonal IgG; IgH SEQ ID NO: 56, IgL SEQ ID NO: 58 (antibody, V domains shown)
VH: QVQLQQPGAELVKPGASVKLSCKASGYTFTSYWIHWVKQRPGQGLEWIGMIHPNSGIAHYSEKFKSTATLTVDKSSSTAYMQLSSLTSEDSSVYYCARGSSSGSAWFAYWGQGTLVTVSAA
VL: DIQMTQSSSYLSVSLGGRVTITCKAGDHINNWLAWYQQKPGNAPRLLISGATSLETGVPSRFSGSGSGKDYTLSITSLQTEDVATYYCQQYWSTPLTFGAGTKLELKR
modifications: HSV010-14 heavy chain; HSV010-14 light chain
B3: 22D10: monoclonal antibody from germinal center B cell; IgH SEQ ID NO: 24, IgL SEQ ID NO: 26 (antibody, V domains shown)
VH: DVQLQESGPALVKPSQTVSLTCTVTGYSITNGNHWWNWIRQVSGSKLEWLGYIRSSGSSDSNPSLKSRISITRDTSKNQLFLHLNSMTTEDIATYYCARGGGLRHYFDYWGQGTTLTVSSA
VL: DIQMTQSPASLSASVGDTVTITCRASGNIHNYLAWYHQKQGKSPQLLVYHAETLTDGVPSRFSGSGSGTQYSLKINSLQPEDFGSYYCQHFWSTPYTFGGGTKLEIKR
modifications: 22D10 heavy chain; 22D10 light chain
B4: HSV010-28: gB-1 specific mouse monoclonal IgG; IgH SEQ ID NO: 60, IgL SEQ ID NO: 62 (antibody, V domains shown)
VH: QIQLVQSGPELKKPGETVKISCKASGYTFTTYGMSWVKQAPGKGLKWMGWINTYSGVSTYADDFKGRFAFSLETSASTAYLQINNLKNEDTATYFCAQVNYAMDYWGQGTSVTVSSA
VL: DIVMTQSHKFLSTSVGDWVTITCKASQDVSTAVAWFQQKPGQSPKVLIYSASYRYTGVPDRFTGSGSGTDFTFTISSVQAEDLAVYYCQQHYSTPRTFGGGTKLEIKR
modifications: HSV010-28 heavy chain; HSV010-28 light chain

Key:
[1] = tested on: HSV-2 G infected cell lysates; assay: ELISA binding of recombinant antibodies to HSV-2 G infected cell lysates; set-up: species or system HSV-2 G strain; conditions: for Binding to HSV-lysate: Table 3 summary
Description: Binding of recombinant antibodies to HSV-2 G lysates was tested by ELISA. Both heavy and light chain V(D)J rearrangements were amplified from selected single B-cell culture wells (22D10, 32H6, 33B8, and 35H7) by standard RT-PCR. These cloned V(D)J rearrangements were introduced into expression vectors. Recombinant antibodies were obtained by co-transfection of these expression vectors into Expi293F cells. ≥4 mg of purified IgGs was obtained (not shown). […]
Briefly, mice were vaccinated with ΔgD-2 and then 16 days after vaccination, the draining, inguinal lymph nodes were harvested. GC B cells were isolated from these tissues and were cultured in Nojima cultures. Although overall cloning efficiency of GC B cells from these (shipped) tissues was lower than those from freshly isolated tissues (6% vs. 20%), 50 GC clones were obtained that were specific to HSV-2 G strain (HSV-2 G or HSV2-G) lysate. GC B cells from inguinal lymph nodes of mice vaccinated with ΔgD-2 were sorted directly into 96-well plates (1 cell/well). These GC B cells were then cultured in the presence of NB-21.2D9 feeder cells. After culture, presence of IgG was first determined by ELISA, and then the reactivity of culture supernatant IgG against HSV-2 G lysates (HSV-2 G) and uninfected Vero lysates were tested by ELISA.
Based on the obtained V(D)J sequences from each B-cell culture, paired heavy and light chains were re-expressed (as recombinant mouse IgG1 and IgG2c antibodies) in Expi293F cells (Kuraoka et al. Immunity 2016; DiLillo et al. Nature Medicine 2013). […] As expected, all recombinant antibodies reacted specifically with HSV-2 G lysates (FIG. 3). […] Binding of recombinant antibodies to HSV-2 G lysates was tested by ELISA. Both heavy and light chain V(D)J rearrangements were amplified from selected single B-cell culture wells (22D10, 32H6, 33B8, and 35H7) by standard RT-PCR. These cloned V(D)J rearrangements were introduced into expression vectors. Recombinant antibodies were obtained by co-transfection of these expression vectors into Expi293F cells. ≥4 mg of purified IgGs was obtained (not shown). […] These recombinant antibodies (≥4 mg each) were tested for identification of reacting antigen(s), in an in vitro FcγRIV activation assay (Promega FcγRIV ADCC Reporter Bioassay)(FIG. 4), and in vivo protection assay. […]

gB-1 = gB-1 (Human herpesvirus 1, UniProt P10211); assay: Luminex competition: inhibition of binding of BMPC-23 human IgG to gB-1; set-up: species or system HSV-1; conditions: Table 3 summary
Description: FIGS. 10A-10G show the capacity of gB-1 specific mouse monoclonal IgG antibodies to inhibit binding of BMPC-23 human IgG antibodies to gB-1.
Finding BMPC-like antibodies. Nine out of 10 gB-1 specific mouse monoclonal IgG antibodies in FIG. 3 were tested for their capacity to inhibit binding of BMPC-23 human IgG antibodies to gB-1. Serially diluted, gB-1 specific mouse monoclonal antibodies or irrelevant, control mouse antibody (H33Lγ1) were incubated with gB-1 conjugated Luminex beads. After incubation, fixed concentration (2 ng/ml) of BMPC-23 human IgG antibodies were added to each well. After washing, mouse anti-human lgG-PE was added to detect binding of human BMPC-23 antibodies. […] Strong inhibition by HSV010-4 (>95% at 222 ng/ml), HSV010-7 (>90% at 222 ng/ml), and HSV010-34 (>80% at 222 ng/ml), shown in FIGS. 10B, 10F, and 10G, respectively, indicates these antibodies bind epitopes on gB-1 closely overlapping with the one recognized by BMPC-23. Therefore, similar protective efficacy as BMPC-23 is expected from these antibodies (experiments in progress). […] Protective efficacy of these antibodies need to be tested (experiments in progress).

[2] = target: glycoprotein B of HSV-1 (gB-1) (Human herpesvirus 1, UniProt P10211); assay: Luminex multiplex assay, binding to gB-1; conditions: Table 3 summary
Description: FIGS. 9A and 9B are graphs of median fluorescence intensity (MFI) versus IgG concentration (ng/ml), showing the binding of various recombinant antibodies to gB-1 as measured by Luminex multiplex assay.
BMPC-23 binds HSV-1 gB (gB-1). The gB-1 binding of the antibodies was determined by Luminex multiplex assay. Mixtures of antigen (gB-1)-conjugated microspheres (1,000 counts each) were added to each well of 96-well filter plates (Millipore). After washing with PBS containing 1% BSA, 0.05% Tween 20 and 0.05% NaN3, serially diluted recombinant antibodies (5E7, 19G7, 18G4, 22E10, 3A2, 17G3, 22D10, 32H6, 33B8, 25H7, BMPC-23, and S5V2-29) were added to the plates and incubated for 2 hours at room temperature, with mild agitation of the plates. Samples were diluted in PBS containing 1% cow milk, 1% BSA, 0.05% Tween 20 and 0.05% NaN3. After washing, PE goat anti-mouse IgG was added to the plates and incubated for 1 hour at room temperature with mild agitation. After washing, microspheres were resuspended in PBS containing 1% BSA, 0.05% Tween 20 and 0.05% NaN3 and fluorescent signals from each microsphere were measured in a Bio-Plex® 3D machine.
Finding gB-1 specific HSV antibodies. After Nojima culture (single B-cell culture), HSV-specific antibodies were cloned from germinal center B cells and tested for binding to HSV-1 gB-1 by Luminex multiplex assay as described above. FIGS. 9A and 9B show the gB-1 binding results for 10 antibodies in comparison with BMPC-23. With the exception of BMPC-23, the antibodies in Table 3 were derived from germinal center B cells (lymph nodes) taken 15-17 days after primary vaccination with ΔgD-2. BMPC-23 was derived from bone marrow plasmacytes taken 2 weeks post-boost with ΔgD-2. Nucleotide sequences and amino acid sequences for the heavy-chains and light chains are shown in Table 4, as are the amino acid sequences for the light chain and heavy chain CDR1, CDR2, and CDR3.

[3] = target: human herpesvirus glycoprotein B (gB) (Human herpesvirus 2, UniProt P08666); assay: Immunoprecipitation-Mass Spectrometry (IP-MS) target identification; format: binding
Description: FIG. 7A-7B. Immunoprecipitation-Mass Spectrometry (IP-MS) was performed to identify the binding targets of 22D10, 33B8, and BMPC-23 antibodies.
IP-MS was performed to identify the targets of 22D10, 33B8, and BMPC-23 antibodies.

HSV-2 = assay: Passive transfer in vivo protection assay, lethal HSV-2 challenge; set-up: species or system mice
Description: Mice were prime-boost immunized with ΔgD-2 and the spleens, draining lymph nodes or bone marrow were isolated. Germinal center (GC) B cells were then cultured on NB-21.2D9 cells (Nojima cultures). After culture, supernatants were screened for the presence of HSV-lysate binding IgG by ELISA. The V(D)J rearrangements amplified from selected GC B-cell cultures for the B-cell antigen receptor (BCR) repertoire analysis in GC B cell clones among individual mice were sequenced. Then, reconstituted antibodies from selected single GC B cell cultures and from single, bone marrow plasmacytes were evaluated for ability to activate the mFcγRIV in vitro and to protect mice in a passive transfer model.
Both IgG1 and IgG2c forms of 22D10, 33B8, and BMPC-23 antibodies (≥4 mg each) were assessed for reproducibility of in vivo protection assay, and any dependency on Ig isotype for protection. […] To test roles of Ig isotypes on ability to provide protection, IgG1 and IgG2c isotypes of these three antibodies were generated and assessed for ability to activate mFcγRIV signaling (as a measurement for ADCC), and for in vivo protection assay.

uninfected Vero lysate = assay: ELISA binding to control uninfected Vero lysate
Description: Binding of recombinant antibodies to HSV-2 G lysates was tested by ELISA. Both heavy and light chain V(D)J rearrangements were amplified from selected single B-cell culture wells (22D10, 32H6, 33B8, and 35H7) by standard RT-PCR. These cloned V(D)J rearrangements were introduced into expression vectors. Recombinant antibodies were obtained by co-transfection of these expression vectors into Expi293F cells. ≥4 mg of purified IgGs was obtained (not shown).
Based on the obtained V(D)J sequences from each B-cell culture, paired heavy and light chains were re-expressed (as recombinant mouse IgG1 and IgG2c antibodies) in Expi293F cells (Kuraoka et al. Immunity 2016; DiLillo et al. Nature Medicine 2013). […] As expected, all recombinant antibodies reacted specifically with HSV-2 G lysates (FIG. 3). […] Binding of recombinant antibodies to HSV-2 G lysates was tested by ELISA. Both heavy and light chain V(D)J rearrangements were amplified from selected single B-cell culture wells (22D10, 32H6, 33B8, and 35H7) by standard RT-PCR. These cloned V(D)J rearrangements were introduced into expression vectors. Recombinant antibodies were obtained by co-transfection of these expression vectors into Expi293F cells. ≥4 mg of purified IgGs was obtained (not shown). […]

Row | Molecule | Binding to HSV-lysate [1] | Competition with BMPC-23 (gB-1) | Target antigens [2] | Binding of recombinant antibodies to HSV-2 G lysates ([1]; ELISA, recombinant antibodies expressed in Expi293F cells) | Binding target identified by IP-MS [3] | Mice protected from lethal challenge (HSV-2; IgG2c version, overall results from 2 independent experiments, passive transfer) | in vivo protection (HSV-2; Table 3 summary) | Protection against lethal HSV-2 challenge (HSV-2; as IgG2c, passive transfer, overall survival, epithelial and neurological assays) | Binding to control, uninfected Vero lysate (uninfected Vero lysate)
1 | B1 | Yes | Weak | gB | – | – | – | – | – | –
2 | B2 | Yes | Weak | gB | – | – | – | – | – | –
3 | B3 | Yes | – | (not gB) | Retention of HSV-2 G lysate-binding | human herpesvirus glycoprotein B (gB) | 5/10 | Yes | significant protection; also recorded: provides protection | did not bind
4 | B4 | Yes | Weak | gB | – | – | – | – | – | –
